Measurements taken from patent WO2009150539A2 (dated 2009).
Where “and” joins values, the source holds several entries; their conditions need not be identical. Equal entries are not always repeated.

T1: AahII toxin of Androctonus australis hector (Androctonus australis hector, UniProt P01484 20-83)
T1 construct: mature; also called Aahll
T1 sequence: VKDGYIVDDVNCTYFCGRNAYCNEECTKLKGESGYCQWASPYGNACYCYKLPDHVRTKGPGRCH


Tests used:
[1] = biological target: T1, AahII toxin of Androctonus australis …; assay: SPR (BIAcore), AahII immobilised on CM5 chip, Nb in mobile phase
[2] = biological target: AahI' toxin of Androctonus australis hector (Androctonus australis hector) (UniProt P01479); assay: cell-based or functional assay
AahI' toxin of Androctonus australis hector (Androctonus australis hector), sequence (P01479 20-82): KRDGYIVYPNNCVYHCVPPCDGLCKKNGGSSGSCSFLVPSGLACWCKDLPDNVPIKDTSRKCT

[3] = biological target: T1, AahII toxin of Androctonus australis …; assay: cell-based or functional assay

Binder | Kd [1] [pM] | koff [1] [s⁻¹] | kon [1] [M⁻¹ s⁻¹] | surviving mice; i.c.v.; 4 LD50 AahI'; ratio 1:2 (survivors of 4 mice) [2] | also measured
NbAahII41 (VHH, also called cluster I) VHH: QVQLVESGGGSVQAGGSLRLSCAASGFDFSIYVMSWVRQAPGKGLEWISGIMPSGQTTYADAVKGRFTISRDNAKNTLYLQLNSLKTEDTAIYYCAKGVYTKYVGGARGQGTQVTVSS | 2310 | 0.01 | 4.33e+06 | – | –
AahI'A2 (VHH) VHH: QVQLQESGGGSVQAGGSLRLSCAASGFPASSYCMAWFRQAPGKEREGLAAIYNGGRRYYPDSLKGRFTIEDKAENTIYLEMNSLKPEDTATYYCAARSNQCWYATLQQSWYPYWGQGTQVTVSS | – | – | – | 0 | –
NbAahII17 (VHH, also called cluster D) VHH: DVQLVESGGGSVQAGGSLRLSCAASGVTLNNYCVGWFRQAPGKEREGVAAFKSGGSFTYYADSVKGRFTISKDNAKNTMYLQMNSLNSDDTAMYYCAVTRNSCLGLAKFRPSSYNYWGQGTQVTVSS | 610 | 0.00376 | 6.12e+06 | – | Survivors/Injected mice; i.c.v.; AahII:Nb 1:2; 2 LD50/mouse; 24 ng Nb/mouse [3]: 0 survivors of 4 mice
NbAahII39 (VHH, also called cluster G) VHH: QVQLVESGGGSVQAGGSLRLSCAASGYTCTKFNMGWYRQAPGKERKMVATIRRDGTTYYADSVKGRFTISQDNAKNTVYLQMTSLKPEDSAMYYCSFRCVTPSLPYWGQGTQVTVSS | 160 | 0.00105 | 6.41e+06 | – | –
AahI'B2 (VHH) VHH: QVQLQESGGGSVQAGGSLRLSCVASEYSYRRNCMAWYRQAPGKEREGVARISTAYDITYYADSANGRFTISQDKAKKTVYLQMNSLKPEDSAMYYCSVSTGSDCYSMSLPRMDYWGKGTQVTVSS | – | – | – | 4 | –
NbAahII18 (VHH, also called NbAahlllδ; NbAahll l δ) VHH: QVQLQESGGGSVQAGGSLRLSCAASGDSYSNYYMAWFRQAPGKEREGVAHINRSGRITLYADSVKGRFTMSRDNAKNTVYLQMNSLRPEDTAIYYCAAGVRTHMPPLASYGFDYWGQGTQVTVSS | 180 | 0.0016 | 8.95e+06 | – | NC = (LD50 with Nb - LD50 without Nb)/Nb; i.c.v.; AahII:Nb 1:4 [3]: 27000 LD50/mg and 400 LD50/nmol; Survivors/Injected mice; i.c.v.; AahII:Nb 1:2; 3 LD50/mouse; 36 ng Nb/mouse [3]: 1 survivors of 4 mice; Survivors/Injected mice; i.c.v.; AahII:Nb 1:2; 4 LD50/mouse; 48 ng Nb/mouse [3]: 0 survivors of 4 mice; Survivors/Injected mice; i.c.v.; AahII:Nb 1:4; 2 LD50/mouse; 48 ng Nb/mouse [3]: 2 survivors of 4 mice; Survivors/Injected mice; i.c.v.; AahII:Nb 1:4; 3 LD50/mouse; 72 ng Nb/mouse [3]: 2 survivors of 4 mice
NbAahII08 (VHH, also called cluster F) VHH: DVQLVESGGGSVQAGGSLRLSCAASGDSYSNYYMAWFRQAPGKEREGVAHINRSGRITLYADSVKGRFTMSRDNAKNTVYLQMNSLKPEDTAIYYCAAGVRTHMPPLASYGFDYWGQGTQVTVSS | 120 | 0.00138 | 1.19e+07 | – | –
AahI'D11 (VHH) VHH: QVQLQESGGGSVEAGGSLRLSCATSGFTFSRYAMYWFRQAPGMECEWVSTIHTNGDTYYANSLKGRFTGSRDNAKNTAYLQMNSLKPEDTAVYYCHAPLNDGSTPTHICSRAGSYGYWGQGTQVTVSS | – | – | – | 2 | –
NbAahII36 (VHH, also called cluster C) VHH: QVQLVESGGGSVQAGGSLRLSCAASGYTFSNYRMGWFRQAPGKECELVSTILTDGSTNYADSVKGRFTISRDNAKNTVYLLMNNLKAEDTAVYYCAAGNSRKGYLRRCGGTDFGYWGQGTQVTVSS | 670 | 0.00137 | 2.04e+06 | – | Survivors/Injected mice; i.c.v.; AahII:Nb 1:2; 2 LD50/mouse; 24 ng Nb/mouse [3]: 1 survivors of 4 mice; Survivors/Injected mice; i.c.v.; AahII:Nb 1:2; 3 LD50/mouse; 36 ng Nb/mouse [3]: 0 survivors of 4 mice
NbAahII20 (VHH, Purified from E. coli periplasm with His6; also called NbAahIKO (I); cluster I) VHH: QVQLQESGGGLVQPGGSLRLSCTASGFDFSRYVMSWVRQAPGKDFEWISGIMPLSSAGTTYADAVKGRFTISRDNAKNTLYLQLNNLKTEDTAIYYCAKGVYTTYIGGARGQGTQVTVSS | 260 | 0.00213 | 8.18e+06 | – | NC = (LD50 with Nb - LD50 without Nb)/Nb; i.c.v.; AahII:Nb 1:4 [3]: 27000 LD50/mg and 400 LD50/nmol; Survivors/Injected mice; i.c.v.; AahII:Nb 1:2; 2 LD50/mouse; 24 ng Nb/mouse [3]: 3 survivors of 4 mice; Survivors/Injected mice; i.c.v.; AahII:Nb 1:2; 4 LD50/mouse; 48 ng Nb/mouse [3]: 2 survivors of 4 mice; Survivors/Injected mice; i.c.v.; AahII:Nb 1:4; 3 LD50/mouse; 72 ng Nb/mouse [3]: 2 survivors of 4 mice
NbAahII05 (VHH, also called cluster G) VHH: QVQLQESGGGSVQAGGSLRLSCAASGYTCTKFNMGWYRQAPGKQREFVASIRRDSTIYYGDSVKGRFTISQDNAKNMVYLQMTSLKPEDSAMYYCSTRCLTSSVPYWGQGTQVTVSS | 670 | 0.00186 | 2.77e+06 | – | Survivors/Injected mice; i.c.v.; AahII:Nb 1:2; 2 LD50/mouse; 24 ng Nb/mouse [3]: 4 survivors of 4 mice; Survivors/Injected mice; i.c.v.; AahII:Nb 1:2; 3 LD50/mouse; 36 ng Nb/mouse [3]: 4 survivors of 4 mice; Survivors/Injected mice; i.c.v.; AahII:Nb 1:2; 4 LD50/mouse; 48 ng Nb/mouse [3]: 1 survivors of 4 mice; Survivors/Injected mice; i.c.v.; AahII:Nb 1:4; 3 LD50/mouse; 72 ng Nb/mouse [3]: 4 survivors of 4 mice
AahI'C14 (VHH) VHH: QVQLQESGGGSVQAEGSLRLSCTVSGLTSSSNYVGWFRQAPGKEREGVATIGPYTRNTRYADSVNGRFTISLDNAKSTLYLQMNGLKPEDTAIYYCAAGKTTWIRALRSDDYKYWGQGTQVTVSS | – | – | – | 0 | –
AahI'F12 (VHH) VHH: QVQLQESGGGSVQAGGSLRLSCVGPGISYVYNRVGWFRQAPGKESEVVAAFYTSNTSALYYAAQVKGRFTISQGNAKNTVYLQMNNLKPEDSGKYYCATANGGLLSDARGYRHYGQGTQVTVSS | – | – | – | 4 | surviving mice; i.c.v.; 20 LD50 AahI'; ratio 1:2 (survivors of 4 mice) [2]: 4; surviving mice; i.c.v.; 23 LD50 AahI'; ratio 1:2 (survivors of 4 mice) [2]: 4; surviving mice; i.c.v.; 26 LD50 AahI'; ratio 1:2 (survivors of 4 mice) [2]: 4; surviving mice; i.c.v.; 29 LD50 AahI'; ratio 1:2 (survivors of 4 mice) [2]: 4; surviving mice; i.c.v.; 33 LD50 AahI'; ratio 1:2 (survivors of 4 mice) [2]: 4; surviving mice; i.c.v.; 37 LD50 AahI'; ratio 1:2 (survivors of 4 mice) [2]: 4; surviving mice; i.c.v.; 47 LD50 AahI'; ratio 1:2 (survivors of 4 mice) [2]: 4; surviving mice; i.c.v.; 60 LD50 AahI'; ratio 1:2 (survivors of 4 mice) [2]: 4; surviving mice; i.c.v.; 70 LD50 AahI'; ratio 1:2 (survivors of 4 mice) [2]: 4; surviving mice; i.c.v.; 75 LD50 AahI'; ratio 1:2 (survivors of 4 mice) [2]: 4; surviving mice; i.c.v.; 80 LD50 AahI'; ratio 1:2 (survivors of 4 mice) [2]: 4; surviving mice; i.c.v.; 90 LD50 AahI'; ratio 1:2 (survivors of 4 mice) [2]: 4; surviving mice; i.c.v.; 95 LD50 AahI'; ratio 1:1 (survivors of 4 mice) [2]: 2; surviving mice; i.c.v.; 95 LD50 AahI'; ratio 1:2 (survivors of 4 mice) [2]: 4; surviving mice; i.c.v.; 100 LD50 AahI'; ratio 1:1 (survivors of 4 mice) [2]: 2; surviving mice; i.c.v.; 100 LD50 AahI'; ratio 1:2 (survivors of 4 mice) [2]: 4
AahI'A17 (VHH) VHH: QVQLQESGGGSVQDGGSLTLSCAASSSYVFNNLNMGWFRQAPGKECELVSTLFVNGITNYADSVKGRFTVSRDNAKNTVFLHMTNLSTEDTAVYYCAAPDVCSATRCGPACRGQGTQVTVSS | – | – | – | 4 | –
AahI'B23 (VHH) VHH: QVQLQESGGGSVQAGGSLRLSCAASGYQQTGYCMGWFRQAPGKEREGVAVIKTFYAGTVYADSVKGRFTISQDIAKNTVYLQMNSLQPEDTAMYYCAITGGPWNGRCPLTSQAFRYWGQGTQVTVSS | – | – | – | 0 | –
AahI'A19 (VHH) VHH: QVQLQESGGGSVQAGGSLRLSCVASEYSECIGWFRQAPGKEREGVAAIEKVLGQRWRADSIHDRITISQDKAKNTVYLQMTSLKIDDTAMYYCAAKGRGCMSQPTTGYLSWGQGTQVTVSS | – | – | – | 4 | –
NbAahII12 (VHH, Purified from E. coli periplasm with His6; also called cluster I) VHH: QVQLVESGGGLVQPGGSLRLSCAASGFSFNIYAMSWVRQAPGKQFEWVSGIHPNGRSTYYTDSVKGRFTISRDNAKNTLYLQLDSLKTEDTAMYYCAKGVLTKYVGGARGQGTQVTVSS | 280 | 0.0016 | 5.63e+06 | – | NC = (LD50 with Nb - LD50 without Nb)/Nb; i.c.v.; AahII:Nb 1:4 [3]: 27000 LD50/mg and 400 LD50/nmol; Survivors/Injected mice; i.c.v.; AahII:Nb 1:4; 2 LD50/mouse; 48 ng Nb/mouse [3]: 3 survivors of 4 mice; Survivors/Injected mice; i.c.v.; AahII:Nb 1:4; 3 LD50/mouse; 72 ng Nb/mouse [3]: 2 survivors of 4 mice
NbAahII19 (VHH, Purified from E. coli periplasm with His6; also called cluster I) VHH: QVQLQESGGGLVQPGGSLRLSCAASGFSFNIYAMSWVRQAPGKQFEWVSGIHPDGRSTYYTDSVKGRFTISRDNAKNTLYLQLDSLKTEDTAMYYCAKGVLTKYVGSARGQGTQVTVSS | 2390 | 0.013 | 5.46e+06 | – | Survivors/Injected mice; i.c.v.; AahII:Nb 1:4; 2 LD50/mouse; 48 ng Nb/mouse [3]: 4 survivors of 4 mice; Survivors/Injected mice; i.c.v.; AahII:Nb 1:4; 3 LD50/mouse; 72 ng Nb/mouse [3]: 4 survivors of 4 mice
AahI'D10 (VHH) VHH: QVQLQESGGGSVQAGGSLRLSCAASVDTFSTTCMGWFRQTPGKEREGVAVIKTFYAGTVYADSVKGRFTISQDIAKNTVYLQMNSLNPEDTAMYYCAATGGPYNGRCPLASQPFRYWTQGTQVTVSS | – | – | – | 3 | –
AahI'A3 (VHH) VHH: QVQLQESGGGSVQAGGSLRLSCAASGFTFRSPYCMGWFRQAPGKEREAVAAIKTYYAGTVYADSMKGRFTITQDIAKNTVYLQMNSLKPEDTATYYCAATGGPYNGRCPLTSQPFPNWGQGTQVTVSS | – | – | – | 4 | –
AahI'D19 (VHH) VHH: QVQLQESGGGLVQPGGSLRLSCAVTDFTFSFYWMYWVRQAPGKNLEWISSLHSDGYTYYPDSVKGRFTISRDTAKNMLYLQMNSLKPEDTAVYYCATAIRNMWGQAAPGSAGYWGQGTQVTVSS | – | – | – | 4 | –
AahI'C13 (VHH) VHH: QVQLQESGGGSVQPGGSLRLSCAASGYIYSRYCMGWFRQAPGKEREGVAVISGYGTTHFADSAKGRFTISQDKAKNMVYLQMNSLRPEDTAIYYCAVRQWDCYSANWPQTHTYDYWGQGTQVTVSS | – | – | – | 2 | –
AahI'B1 (VHH) VHH: QVQLQESGGGSVQAGGSLRLSCTASKYTSAVGWFRQAPGKEREGVASIYGYTGSGSSGSTYYADSGKGRFTISRDSAKNMVYLQMNSLKPEDTAMYYCTAADRPRFRLLVEDDVVYWGQGTQVTVSS | – | – | – | 0 | –
